This note sets out measurements from the DeepSol protein solubility set.

The series can be described thus: soluble on expression in E. coli; label from the status in PepcDB or PDB records.
As for “MSLKIIVVGCGKIGYTIAKVLSEKKDIDVTVVDNNPNIFDKMVEPIDVIFISGNGANEKTLIEAGAKDADLIVSTTNADELNVLCCIMAERLGTKHSIARVRNPEYMLEFNKLWKDLGIDMVINPERQTAREISRILRYHAADDIVTFIGDRVELVSFKVSETPEYFVGKSVSQIFDNNMGILLAIVERENQALIPNGDLIFKESDIIWIMGRPSQIMKFFTLIKKGPKKGQEIMVIGGGKITHYLVELLNRHTTKANIKIIKKDRSKCESLYEALSSASLERRCLFIHGDGTNEELLIDEGIDTMDACVCLTDRDEENVFISLYAMRRGVKKVITKINYIHQNMAKSLGLWLGNIITPQYITAKTVIRYVDGLSGAVGRNIMTIHQIYSGDDGNVDAIEFQVNKKAKCIDTPIKKLKLKKGILIGCISRDFDIIIPSGETEIHIGDRVIIFSKNNDIRDLDDILENEGHHHHHH”, the “soluble on expression in E. coli” value is “soluble”. Under “MAGVRQHGWRAIPAVCSEYGADTLPDRYRSDGRCLLFRQQAGISALKQELEVKTPYRAMNHPVIGVVTKADLASMEQISLVKCWLREAGAHNVLVTSAVNNNGVTELFALLHTEEGCR” stands “not soluble”; under “MLVLYRASIRFKLRKNKNSFDSSNYFYGGNNICIINTKWGKHSGIGGYAEIIDTLVGNFTNISSWAKIGIRDHIHTNFLICDFVYKDNDHIMPPGISSFEDYWVKIGNDVWVGTNVTILRGVEVGDGAVIAAGSVVTKSIPPYAIVGGNPAKFIKWRFPFEVREKLLEIKWWDWDDDLIKEKKDYLQNLVGFDMDKYKIEYRKRKEDLFYLEHHHHHH”, “soluble”. Regarding “MIKRPHVMQDSIQDCGVACIEMICKFYNINIDRRYIQEETGYGMIGISLKAMEKFFSKVDANPEIVNISKINRLNKENREMINNSLPAIVFLEEEEIINHFVVIWHIGKKRILVSDPTHTKKEWINNKHFEKRAISYLFVEKPKNI”, the “soluble on expression in E. coli” value is on record as “not soluble”.

For the sequence “MGSDKIHHHHHHETRECIYYNANWELERTNQSGLERCEGEQDKRLHCYASWRNSSGTIELVKKGCWLDDFNCYDRQECVATEENPQVYFCCCEGNFCNERFTHLPEPG”, the “soluble on expression in E. coli” value is recorded as “soluble”. Under “MGFLPISLLHLVIKLLKNSLRKSSRELKDNFYDEPYIVLSELRELKTYFSILSAIAAGKRKPSEMANEVDLEGRKIHSYIETLIRLGFVERDLLVARKEKRWLYIISDPMLMSWFSLVYPKRTEIEIGAMTIDDVKEILQRIFSFRFEQVSREFLIELNRKGNLPFRFTKIGRWWHKEEEIDIVALNEKEKKSLLIEIKWKELKEREIKGILNDLELEGWDKIYGVIAKKVQKKENLWERGFLIWDLEDLDVLAAALEHHHHHH” stands “not soluble”. In the case of “MLLSLYIPPGRPLSDVMTLLRQEYSITDNIKLKRTRQAVKRALSAAMDRLQMLTSTPPNGLVLFCGEDMSTGKFECFMFSPPEPIRVFYYRTDKRFITDFLEDMVEDNNAIGIIIVERDQATIGLLKGARLEVLKELEGFVPGKHKMGGQSQRRYERIIEQMVDEFFKKVGEEASNLLVPLAEKGVLKGVIVAGPGLAKQEFVEGNYLDYRLKKILAPELVDVAYQGLQGLKEAVMKAEKVVEAQMYRDAVNAMEEFKLHLAKGTGMIVYGEKDVEAALEMGAVKTLLIHESREDLEEWVEKAKSSGAQVIVVPESLAEAEWFLKTFGGLAGILRFRISTV” it was “soluble”; in that of “MFILSLLHDTVAIQPHQLSSDQQIVIKKRLNERLANKIIPDLGLCICVYDINEIGDSYILPGEGDCRARVKFRMIVFRPFVDEVIEAKVIGSSRQGLCLTIQFFEDIFVPAEKLPEPHVFEEEGQVWYWEYAQEDGEPPAKLYMDPGKIVRFRVTEIIFKDLKPELTHEERKTEKSMEIKGTMASTGLGCIGWWAAEDEDDEAVEDEQDEQEEVIQPKEEIRQPQEEVRQPVKIKEEPV”, “not soluble”; in that of “MSLGPVENHSLPRTAAFFDLDKTVIAKSSTLTFSKSFYQGGLINRRAVLRTAYAQFVFLAGGADHDQMERMREYLSALCRGWNVRQVKEIVAETLHDLIDPIIYDEAASLIEEHHTAGRDVVIVSTSGAEVVEPIGELLGADRVVATRMIVGDDGCFTGEVEYYAYGPTKAEAIKELAASEGYDLARCYAYSDSATDLPMLESVGHPHAVNPDRALRREAIARQWPILDFHRPVRLKQRLPALSVPPREGHHHHHH”, “soluble”. Under “MSVNFFSLITSSWERGLFLKSCKNNSGTDSNRFFSFSVPPNLLDNLLPPLLVRKTLSSSSSKSCGIGGIYFKSSAVNVSEDGLTASTFFSILLPKNFLGITKLFCRIFLLSCPHNYKWFIHLINPFEYENFINIE” stands “soluble”.
